Laboratory results published in US20030228608, “Method to enhance homologous recombination” (Promega Corporation, published 2003).

T1: RecA (Thermotoga maritima, UniProt P36203 P36203:1-356)
T1 sequence: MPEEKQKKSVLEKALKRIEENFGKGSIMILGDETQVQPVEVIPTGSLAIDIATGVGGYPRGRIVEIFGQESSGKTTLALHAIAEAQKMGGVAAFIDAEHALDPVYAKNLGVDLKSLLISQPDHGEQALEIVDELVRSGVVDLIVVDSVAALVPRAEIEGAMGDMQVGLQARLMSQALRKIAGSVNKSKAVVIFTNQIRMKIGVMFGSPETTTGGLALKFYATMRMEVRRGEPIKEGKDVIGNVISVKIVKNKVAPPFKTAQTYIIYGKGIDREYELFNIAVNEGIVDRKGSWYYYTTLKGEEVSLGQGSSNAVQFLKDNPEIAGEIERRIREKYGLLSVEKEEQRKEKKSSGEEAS


Legend:
RecA [1] = biological target: T1, RecA; test: EMSA; nucleoprotein assembly; 75 C, 2 mM Mg acetate, ATPgammaS or dATP/ATPgammaS; more efficient than E. coli RecA; conditions: tags: untagged; expressed in E. coli; label: 5' fluorescein
Description: (§1) To detect recombinase coating of a substrate (nucleoprotein assembly), a gel shift assay with a labeled ssDNA may be employed. For example, 0.1 μM of a fluorescein-tagged 91-mer oligonucleotide (F-[…] […] GAT; SEQ ID NO: 1) was used as a substrate for coating by RecA. The coating buffer for E. coli RecA was 25 mM Tris acetate, pH 7.85, 15 mM potassium glutamate (K-Glu), 5 mM Mg acetate, and 2.5 mM DTT. The coating buffer for Thermotoga RecA was 25 mM Tris acetate, pH 8.0, 15 mM K-Glu, 2 mM Mg acetate, 2.5 mM DTT and 0.1% Triton. The coating buffer also included ATPyS (3 mM), or dATP and ATPγS at a ratio of 10:1 (3 mM and 0.3 mM, respectively). RecA was then added to the coating buffer containing the substrate at a ratio of 4 μM RecA for 10 μM of base. The E. coli RecA coating reaction was incubated for up to 60 minutes at 42° C. and the Thermotoga RecA coating reaction was incubated for up to 60 minutes at 75° C. (or 65° C.), although other temperatures may be employed. The tagged oligonucleotide was visualized and quantified using a FluorImager-SI and ImageQuant Software.

RecA [2] = biological target: T1, RecA; test: EMSA; 75 C, 2 mM Mg acetate; slower assembly than 91-mer; more efficient than E. coli RecA; conditions: tags: untagged; expressed in E. coli; label: 5' fluorescein
Description: as §1, with “Software. […]” for “Software.”

Binder | binding result (RecA [1]) | binding result (RecA [2])
91-mer (ssDNA, [1 (5'-fluorescein)]) DNA: ACAACAACTGGCGGGCAAACAGTCGTTGCTGATTGGCGTTGCCTAATCCAGTCTGGCCCTGCACGCGCCGTCGCAAATTGTCGCGGCGAT | binds | –
GCTGATTGGCGTTGCCTAATCCAGTCTGGCCCTGC (ssDNA, [5'-F label (position 1)]) [35-mer] | – | binds
51-mer (ssDNA, [5'-F label (position 1)]) DNA: CAGTCGTTGCTGATTGGCGTTGCCTAATCCAGTCTGGCCCTGCACGCGCCG | – | binds
